According to US20140322218A1 (Amgen, published 2014):

Columns and labels:
[1] = target: T1, muCDH19(44-247)::huCDH19(250-364)::muCDH19(363-770), Flag-tagged, on 293T cells (human/mouse chimera); experiment: FACS, transfected 293T
T1 construct: also called Hu EC3; C137911
Source text: (§1) The experiment included assaying the anti-CDH19 antibodies against mouse Cadherin19 to determine suitability for binning on these human/mouse chimeras.

[2] = target: T2, muCDH19(44-362)::huCDH19(365-772), Flag-tagged, on 293T cells (human/mouse chimera); experiment: FACS, transfected 293T
T2 construct: also called Hu EC4-5; C137917
T2 chain: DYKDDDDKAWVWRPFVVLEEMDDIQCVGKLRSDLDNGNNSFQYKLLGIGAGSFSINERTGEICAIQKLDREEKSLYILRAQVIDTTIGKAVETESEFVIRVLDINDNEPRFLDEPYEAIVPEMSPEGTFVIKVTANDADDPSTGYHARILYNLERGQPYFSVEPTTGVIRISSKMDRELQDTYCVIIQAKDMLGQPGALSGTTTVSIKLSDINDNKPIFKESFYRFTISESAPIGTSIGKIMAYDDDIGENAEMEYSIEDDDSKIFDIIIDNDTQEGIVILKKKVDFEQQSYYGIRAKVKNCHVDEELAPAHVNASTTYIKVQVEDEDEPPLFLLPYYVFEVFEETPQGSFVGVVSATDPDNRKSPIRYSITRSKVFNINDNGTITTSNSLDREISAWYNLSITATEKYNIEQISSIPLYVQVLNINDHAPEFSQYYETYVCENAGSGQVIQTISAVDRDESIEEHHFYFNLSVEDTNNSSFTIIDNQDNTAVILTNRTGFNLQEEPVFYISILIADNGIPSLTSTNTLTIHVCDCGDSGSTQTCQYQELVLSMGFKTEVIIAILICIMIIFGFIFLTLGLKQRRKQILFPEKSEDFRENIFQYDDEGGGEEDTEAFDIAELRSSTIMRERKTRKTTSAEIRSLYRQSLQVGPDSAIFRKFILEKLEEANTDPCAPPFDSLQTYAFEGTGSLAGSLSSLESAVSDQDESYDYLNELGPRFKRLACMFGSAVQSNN
Source text: as §1

[3] = target: T3, muCDH19(44-139)::huCDH19(142-249)::muCDH19(248-770), Flag-tagged, on 293T cells (human/mouse chimera); experiment: FACS, transfected 293T
T3 construct: also called Hu EC2; C137913
T3 chain: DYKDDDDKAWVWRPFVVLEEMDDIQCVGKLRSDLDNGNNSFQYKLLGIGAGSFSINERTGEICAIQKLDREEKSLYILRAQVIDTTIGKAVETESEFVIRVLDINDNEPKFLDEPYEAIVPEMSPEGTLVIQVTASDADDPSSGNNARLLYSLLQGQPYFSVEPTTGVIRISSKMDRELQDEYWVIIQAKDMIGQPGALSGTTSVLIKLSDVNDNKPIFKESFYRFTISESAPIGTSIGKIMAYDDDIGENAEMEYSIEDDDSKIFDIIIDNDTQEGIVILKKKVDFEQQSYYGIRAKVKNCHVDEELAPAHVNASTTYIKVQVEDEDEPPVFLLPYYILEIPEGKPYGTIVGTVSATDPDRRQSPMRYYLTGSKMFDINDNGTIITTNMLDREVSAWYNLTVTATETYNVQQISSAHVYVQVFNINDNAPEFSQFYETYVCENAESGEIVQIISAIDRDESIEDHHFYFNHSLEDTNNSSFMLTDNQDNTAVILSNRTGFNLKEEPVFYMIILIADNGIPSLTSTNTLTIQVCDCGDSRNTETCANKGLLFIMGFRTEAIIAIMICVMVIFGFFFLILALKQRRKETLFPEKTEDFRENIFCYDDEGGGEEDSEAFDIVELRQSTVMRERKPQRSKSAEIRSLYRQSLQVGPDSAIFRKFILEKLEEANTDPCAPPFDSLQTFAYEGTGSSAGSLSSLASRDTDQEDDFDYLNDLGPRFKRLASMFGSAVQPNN
Source text: as §1

[4] = target: T4, huCDH19(44-141)::muCDH19(140-770), Flag-tagged, on 293T cells (human/mouse chimera); experiment: FACS, transfected 293T
T4 construct: also called Hu EC1
Source text: as §1

[5] = target: T5, huCDH19(44-772), Flag-tagged, on 293T cells (human, UniProt Q9H159 44-772); experiment: FACS, transfected 293T
T5 construct: Expressed with native leader (1-43) followed by a Flag tag; leader left out; also called Hu EC1-5
Source text: as §1

[6] = target: T6, muCDH19(44-139)::huCDH19(142-364)::muCDH19(363-770), Flag-tagged, on 293T cells (human/mouse chimera); experiment: FACS, transfected 293T
T6 construct: also called Hu EC2-3; C137847
Source text: as §1

[7] = target: T7, huCDH19(44-249)::muCDH19(248-770), Flag-tagged, on 293T cells (human/mouse chimera); experiment: FACS, transfected 293T
T7 construct: also called Hu EC1-2; C137896
Source text: as §1

[8] = target: T8, muCDH19(44-770), Flag-tagged, on 293T cells (mouse); experiment: FACS, transfected 293T
T8 construct: also called Mu EC1-5
T8 chain: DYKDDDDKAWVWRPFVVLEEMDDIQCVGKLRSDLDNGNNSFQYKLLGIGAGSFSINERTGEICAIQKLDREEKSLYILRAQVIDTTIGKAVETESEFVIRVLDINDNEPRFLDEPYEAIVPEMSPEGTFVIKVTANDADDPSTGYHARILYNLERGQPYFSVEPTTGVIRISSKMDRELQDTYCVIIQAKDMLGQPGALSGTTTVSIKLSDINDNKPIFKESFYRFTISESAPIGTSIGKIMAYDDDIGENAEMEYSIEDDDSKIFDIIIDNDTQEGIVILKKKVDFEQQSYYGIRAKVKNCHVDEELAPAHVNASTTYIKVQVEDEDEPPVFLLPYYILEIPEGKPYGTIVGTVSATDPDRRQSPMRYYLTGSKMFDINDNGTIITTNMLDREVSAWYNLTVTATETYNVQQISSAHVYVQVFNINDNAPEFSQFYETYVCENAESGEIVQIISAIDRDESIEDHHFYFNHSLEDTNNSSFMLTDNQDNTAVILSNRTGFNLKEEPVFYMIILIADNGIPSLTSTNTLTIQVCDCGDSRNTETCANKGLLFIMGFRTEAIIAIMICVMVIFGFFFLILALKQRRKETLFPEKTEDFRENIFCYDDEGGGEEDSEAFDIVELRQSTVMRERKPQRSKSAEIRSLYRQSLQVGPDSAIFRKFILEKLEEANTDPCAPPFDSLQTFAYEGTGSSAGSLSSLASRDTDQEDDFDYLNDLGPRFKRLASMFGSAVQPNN
Source text: as §1

[9] = target: T9, muCDH19(44-461)::huCDH19(464-772), Flag-tagged, on 293T cells (human/mouse chimera); experiment: FACS, transfected 293T
T9 construct: also called Hu EC5; C137915
T9 chain: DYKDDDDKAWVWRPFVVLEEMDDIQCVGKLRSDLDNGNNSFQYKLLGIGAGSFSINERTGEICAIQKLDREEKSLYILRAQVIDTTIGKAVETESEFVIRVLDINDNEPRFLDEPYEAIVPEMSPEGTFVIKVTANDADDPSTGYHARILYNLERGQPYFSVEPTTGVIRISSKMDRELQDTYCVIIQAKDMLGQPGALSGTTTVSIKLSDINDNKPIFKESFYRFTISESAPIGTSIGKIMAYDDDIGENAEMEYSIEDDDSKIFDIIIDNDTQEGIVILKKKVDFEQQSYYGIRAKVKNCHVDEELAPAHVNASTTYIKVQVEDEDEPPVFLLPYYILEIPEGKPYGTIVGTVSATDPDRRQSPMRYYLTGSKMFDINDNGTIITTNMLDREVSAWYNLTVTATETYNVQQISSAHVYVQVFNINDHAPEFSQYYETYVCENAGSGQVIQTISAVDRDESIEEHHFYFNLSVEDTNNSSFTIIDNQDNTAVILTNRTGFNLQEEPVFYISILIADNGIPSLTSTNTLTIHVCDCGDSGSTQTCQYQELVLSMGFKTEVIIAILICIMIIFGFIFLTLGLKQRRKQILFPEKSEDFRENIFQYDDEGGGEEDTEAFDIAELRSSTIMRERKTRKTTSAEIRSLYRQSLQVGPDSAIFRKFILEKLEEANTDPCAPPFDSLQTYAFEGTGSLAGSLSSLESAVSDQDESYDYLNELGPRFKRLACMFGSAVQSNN
Source text: as §1

Human Cadherin-19 = target: T10, Human Cadherin-19 (human, UniProt Q9H159 44-772); experiment: FACS, endogenous CDH19 on tumor cells and 293/CDH-19 transfectants
T10 construct: Residues 1-43 are named as the native leader in the construct designations and are left out; also called human CDH19; huCDH19
Procedure: FACS binding assays were performed to evaluate the binding of the anti-Cadherin-19 receptor specific antibodies to endogenous Cadherin-19 receptor expressed on the CHL-1 tumor cell lines.
FACs assays were performed by incubating hybridoma supernatants with 10,000 to 25,000 cells in PBS/2% Fetal bovine serum/2 mM Calcium Chloride at 4° C. for one hour followed by two washes with PBS/2% Fetal bovine serum/2 mM Calcium Chloride. Cells were then treated with florochrome-labeled secondary antibodies at 4° C. followed by one wash. The cells were resuspended in 50 μl of PBS/2% FBS and antibody binding was analyzed using a FACSCalibur™ instrument.

Cyno Cadherin-19 = target: T11, Cyno Cadherin-19 (cynomolgus monkey (Macaca fascicularis), UniProt Q9H159 44-772 (human entry)); experiment: FACS, recombinant cyno CDH19
T11 construct: also called cyno CDH19; cynomologous CDH-19
T11 chain: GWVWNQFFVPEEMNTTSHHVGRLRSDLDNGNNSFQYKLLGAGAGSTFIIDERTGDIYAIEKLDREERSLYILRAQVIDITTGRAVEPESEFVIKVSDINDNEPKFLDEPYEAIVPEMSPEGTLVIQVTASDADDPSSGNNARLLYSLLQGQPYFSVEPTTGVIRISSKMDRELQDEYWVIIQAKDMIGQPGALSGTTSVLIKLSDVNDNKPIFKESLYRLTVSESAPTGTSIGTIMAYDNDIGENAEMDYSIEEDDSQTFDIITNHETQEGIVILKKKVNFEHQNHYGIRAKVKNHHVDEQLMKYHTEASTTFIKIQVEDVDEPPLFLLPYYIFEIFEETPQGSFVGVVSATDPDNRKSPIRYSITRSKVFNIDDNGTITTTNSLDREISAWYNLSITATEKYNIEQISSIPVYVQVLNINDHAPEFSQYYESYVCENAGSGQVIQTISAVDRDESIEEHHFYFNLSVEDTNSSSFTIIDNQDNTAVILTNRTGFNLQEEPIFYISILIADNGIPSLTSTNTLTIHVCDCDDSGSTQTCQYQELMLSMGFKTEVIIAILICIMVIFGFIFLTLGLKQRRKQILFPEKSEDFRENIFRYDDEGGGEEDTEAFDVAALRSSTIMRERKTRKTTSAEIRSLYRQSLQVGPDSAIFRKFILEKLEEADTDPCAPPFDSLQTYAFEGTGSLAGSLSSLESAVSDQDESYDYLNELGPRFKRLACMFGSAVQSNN

Measured: binding result

B1: hu anti-<huCDH19> 2G6 (1-477)(R17G,D61E,D72E,K94N) VH::huIgG1z / 2G6 (1-234)(C42S,D110E) VL::huLLC-C1 (Ab ID 14039) (antibody, V domains shown)
VH: QVQLVESGGGVVQPGGSLRLSCAASGFTFSSYGMHWVRQAPGKGLEWVAFIWYEGSNKYYAESVKDRFTISRDNSKNTLYLQMNSLRAEDTAVYYCARRAGIIGTIGYYYGMDVWGQGTTVTVSS
VL: SYELTQPPSVSVSPGQTASITCSGDRLGEKYTSWYQQRPGQSPLLVIYQDTKRPSGIPERFSGSNSGNTATLTISGTQAMDEADYYCQAWESSTVVFGGGTKLTVLG
notes: Engineered variant of 2G6
binds: [1] | [2] | [3] | [4] | [5] | [6] | [7] | [8] | [9]

B2: hu anti-<huCDH19> 22G10.1 VH::huIgG1z / 22G10.1 VL::huKLC (Ab ID 13877) (antibody, V domains shown)
VH: EVQLLESGGGLVQPGGSLRLSCAASGFTFSSYAMNWVRQAPGKGLEWVSTISGGGANTYYADSVKGRFTISSDNSKSTLYLQMNSLRAADTAVYHCAKGGMGGYYYGMDVWGQGTTVTVSS
VL: EIVMTQSPVTLSLSLGERATLSCRASQSISSNLAWFQQKPGQAPRLLIYGAFTRATGIPARVSGSGSGTEFTLTISSLQSEDFAVYYCQQYNYWPLTFGGGTKVEIKR
binds: Human Cadherin-19 | Cyno Cadherin-19
